# B1: TRIM43 (parent)
# chain: NNSWIRKNSTMVNSEDIFLLLCLK
# Variants of: B1
# Assay: protein stability index of a GFP-peptide fusion (GPS, HEK-293T) (PSI 1-6); higher = more stable
# Settings: c terminus: a fixed tail appended
# 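Further: lentivirally expressed fusions sorted by FACS into six bins by GFP to DsRed ratio, PSI derived from sequencing read proportions per bin multiplied by bin number.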
row,Variant,protein stability index
1,NNSWIRKNSTMVNSKDIFLLLCLK,2.89
2,NNSWIRKNSTMVNSPDIFLLLCLK,1.87
3,NNSWIRKNSTMVNSQDIFLLLCLK,4.22
4,NNSWIRKNSTMVNSHDIFLLLCLK,2.77
5,NNSWIRKNSTMVNSCDIFLLLCLK,2.74
6,NNSWIRKNSTMVNSNDIFLLLCLK,2.88
7,NNSWIRKNSTMVNSFDIFLLLCLK,2.69
8,NNSWIRKNSTMVNSIDIFLLLCLK,2.72
9,NNSWIRKNSTMVNSRDIFLLLCLK,1.25
10,NNSWIRKNSTMVNSEDIFGLLCLK,1.8
11,NNSWIRKNSTMVNSEDIFILLCLK,2.63
12,NNSWIRKNSTMVNSEDIFRLLCLK,1.7
13,NNSWIRKNSTMVNSEDIFKLLCLK,1.54
14,NNSWIRKNSTMVNSEDIFELLCLK,1.79
15,NNSWIRKNSTMVNSEDIFWLLCLK,2.33
16,NNSWIRKNSTMVNSEDIFQLLCLK,2.21
17,NNSWIRKNSTMVNSEDIFDLLCLK,2.01
18,NNSWIRKNSTMVNSEDIFALLCLK,2.25
19,NNSWIRKNSTMVNSEDIFHLLCLK,1.7
20,NNSWIRKNSTMVNSEDIFNLLCLK,1.83
21,NNSWIRKNSTMVNSEDIFPLLCLK,1.95
22,NNSWIRKNSTMVNSEDIFMLLCLK,2.08
23,NNSWIRKNSTMVNSEDIFFLLCLK,2.07
24,NNSWIRKNSTMVNSEDIFTLLCLK,1.69

row,Variant,protein stability index
1,NNSWIRKNSTMVNSEDIFVLLCLK,3.1
2,NNSWIRKNSTMVNSEDIFYLLCLK,3.02
3,NNSWIRKNSTMVNSEDIFCLLCLK,2.32
4,NNSWIRKNSTMVNSEDIFSLLCLK,1.63
5,NNSWIRKNSTMVNSEDKFLLLCLK,2.62
6,NNSWIRKNSTMVNSEDWFLLLCLK,2.16
7,NNSWIRKNSTMVNSEDLFLLLCLK,3.15
8,NNSWIRKNSTMVNSEDCFLLLCLK,3.18
9,NNSWIRKNSTMVNSEDHFLLLCLK,2.5
10,NNSWIRKNSTMVNSEDNFLLLCLK,1.85
11,NNSWIRKNSTMVNSEDTFLLLCLK,2.42
12,NNSWIRKNSTMVNSEDYFLLLCLK,2.83
13,NNSWIRKNSTMVNSEDGFLLLCLK,2.04
14,NNSWIRKNSTMVNSEDVFLLLCLK,2.24
15,NNSWIRKNSTMVNSEDPFLLLCLK,1.93
16,NNSWIRKNSTMVNSEDRFLLLCLK,2.7
17,NNSWIRKNSTMVNSEDMFLLLCLK,2.26
18,NNSWIRKNSTMVNSEDQFLLLCLK,3.35
19,NNSWIRKNSTMVNSEDFFLLLCLK,2.21
20,NNSWIRKNSTMVNSEDAFLLLCLK,2.04
21,NNSWIRKNSTMVNSEDSFLLLCLK,2.6
22,NNSWIRKNSTMVNSEDDFLLLCLK,1.93
23,NNSWIRKNSTMVNSEDEFLLLCLK,3.62

# From the supplement of paper PMC10567573
